Holding throughout (experiment): cell-based or functional assay
Assay [1] concerns the target human intravenous immunoglobulin gamma (IVIG), 10% Human IVIG (Gamunex) (human).
The target in assay [2] is AAV2 capsid (AAV2-Luciferase vector virions) (AAV2) (UniProt P03135).
Assay [3] concerns the target AAV neutralizing antibodies in AAV8-GFP immunized C57BL6 mice (mouse).
Assay [4] deals with human intravenous immunoglobulin gamma (IVIG), 10% Human IVIG (Gamunex) (human). The source holds these as a separate data set.
The target in assay [5] is AAV2 capsid (AAV2-Luciferase vector virions) (AAV2) (UniProt P03135). The source holds these as a separate data set.

The source of these data is US20220260563A1.

Chain of UniProt P03135 (P03135 whole entry, the tested form may be a part): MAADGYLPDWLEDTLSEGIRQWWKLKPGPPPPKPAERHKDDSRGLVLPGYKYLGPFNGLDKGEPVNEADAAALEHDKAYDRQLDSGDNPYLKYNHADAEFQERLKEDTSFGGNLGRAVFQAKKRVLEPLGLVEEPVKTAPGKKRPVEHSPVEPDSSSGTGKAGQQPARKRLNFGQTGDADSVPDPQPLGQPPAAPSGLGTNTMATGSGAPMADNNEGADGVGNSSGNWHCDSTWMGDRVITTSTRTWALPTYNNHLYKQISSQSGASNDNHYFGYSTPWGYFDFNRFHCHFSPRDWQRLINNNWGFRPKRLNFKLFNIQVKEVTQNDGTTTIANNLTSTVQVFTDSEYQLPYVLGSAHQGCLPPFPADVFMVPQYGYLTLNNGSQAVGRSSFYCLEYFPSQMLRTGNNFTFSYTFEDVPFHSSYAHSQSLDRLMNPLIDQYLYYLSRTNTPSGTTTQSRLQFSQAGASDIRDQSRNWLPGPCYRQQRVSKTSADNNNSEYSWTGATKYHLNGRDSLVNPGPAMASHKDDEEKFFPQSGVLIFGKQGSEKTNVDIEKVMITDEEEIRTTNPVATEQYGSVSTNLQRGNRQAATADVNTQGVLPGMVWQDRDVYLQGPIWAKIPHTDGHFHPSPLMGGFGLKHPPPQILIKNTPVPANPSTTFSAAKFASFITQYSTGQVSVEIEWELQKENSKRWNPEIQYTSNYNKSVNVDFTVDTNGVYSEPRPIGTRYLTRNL

Regarding “Protein M without cleavage of His tag (from UniProt P47523 37-556)”, in assay [1], the molar ratio of protein M to IVIG that protects AAV2 when protein M is pre-incubated with AAV2 (protein M molecules per IgG molecule) was above 2 and the protection of AAV2 from IVIG neutralization in 10% FBS, protein M to total IgG molar ratio (protein M molecules per IgG molecule) is 1. In assay [2], the molar ratio of protein M to AAV2 particle at which enhancement begins to saturate (protein M molecules per AAV2 particle) was 700000 and the molar ratio of protein M to AAV2 particle below which enhancement of luciferase signal is abolished (protein M molecules per AAV2 particle) is below 40000.
In assay [2], “human intravenous immunoglobulin gamma (IVIG), 10% Human IVIG (Gamunex) (antibody)” gave a percent of AAV2-Luciferase signal neutralized by 12.5 µg IVIG of 80%, a percent of AAV2 neutralized by 12.5 µg IVIG of 75%, a percent of AAV2 neutralized by 200 µg IVIG of 100% and a reduction in AAV signal by 12.5 µg IVIG without protein M of 68%.

B1: Modified M. genitalium protein M MG29 (protein, not shown: small tags and cut ends)
chain: SLSLNDGSYQSEIDLSGGANFREKFRNFANELSEAITNSPKGLDRPVPKTEISGLIKTGDNFITPSFKAGYYDHVAEDGSLLSYYQSTEYFNNRVLMPILQTTNGTLMANNRGYDDVFRQVPRFPGWSNTKATTVSTSNNLTYDKWTYFAAKGSPLYDQYPNHTFEDVKTLAIDAKDISALKTTIDSEKPTYLIIRGLSGNGSQLNELQLPESVKKVSLYGDYTGVNVAKQIFANVVELEFYSTSKANSFGFNPLVLGSKTNVINDLFVSKPFTHIDLTQVTLQNSDNSAIDANKLKQAVGDIYNYRRFERQFQGYFAGGYIDKYLVKNVNTNKDSDDDLVYRSLKELNLHLEEAYREGDNTYYRVNENYYPGASIYENERASRDSEFQNEILKRAEQNGVTFDEN
For the molecule B1, the luciferase signal of the saline leg against the protein M formulated leg, AAV8-Luciferase re-dosing in immunized mice in assay [3] is above 98 % less.

B2: protein M (SEQ ID NO:2), His-tag removed by thrombin cleavage (protein)
chain: HHHHHHSSGLVPRGSHMTNLVNQSGYALVASGRSGNLGFKLFSTQSPSAEVKLKSLSLNDGSYQSEIDLSGGANFREKFRNFANELSEAITNSPKGLDRPVPKTEISGLIKTGDNFITPSFKAGYYDHVASDGSLLSYYQSTEYFNNRVLMPILQTTNGTLMANNRGYDDVFRQVPSFSGWSNTKATTVSTSNNLTYDKWTYFAAKGASPLYDSYPNHFFEDVKTLAIDAKDISALKTTIDSEKPTYLIIRGLSGNGSQLNELQLPESVKKVSLYGDYTGVNVAKQIFANVVELEFYSTSKANSEGFNPLVLGSKTNVIYDLFASKPFTHIDLTQVTLQNSDNSAIDANKLKQAVGDIYNYRRFERQFQGYFAGGYIDKYLVKNVNTNKDSDDDLVYRSLKELNLHLEEAYREGDNTYYRVNENYYPGASIYENERASRDSEFQNEILKRAEQNGVTFDENIKRITASGKYSVQFQKLENDTDSSLERMTKAVEGLVTVIGEEKFETVDITGVSSDTNEVKSLAKELKTNALGVKLKL
On to B2, for which, in assay [4], the AAV2 luciferase signal, percent of no-IVIG control, at 8:1 molar ratio (33 µg protein M, 12.5 µg IVIG) (% of no-IVIG control) came out at 194; the AAV2 luciferase signal, percent of no-IVIG control, at 20:1 molar ratio (75 µg protein M, 12.5 µg IVIG) (% of no-IVIG control) is 256; the AAV2 luciferase signal, percent of no-IVIG control, at protein M:IgG molar ratio 0.5:1 (% of no-IVIG control) came to 40; the AAV2 luciferase signal, percent of no-IVIG control, at protein M:IgG molar ratio 1:1 (% of no-IVIG control) came to 52. In assay [4], the AAV2 luciferase signal, percent of no-IVIG control, at protein M:IgG molar ratios greater than 2:1 (% of no-IVIG control) was in the range of 108 to 193 and the molar ratio of protein M to IgG sufficient to prevent AAV2 neutralization (protein M molecules per IgG molecule) was 2. For the same molecule, in assay [5], the AAV2 luciferase signal relative to PBS control, 33 µg protein M incubated with AAV2 without IVIG (% of PBS control) is 216 and the AAV2 luciferase signal relative to PBS control, 75 µg protein M incubated with AAV2 without IVIG (% of PBS control) worked out at 208.
